# Experimental data taken from patent publication US20200317768A1 (published 2020).
# Where a chain is given by its changes, count along the chain named. In names and notes the source's numbering stands.
# T1: cynomolgus monkey FcγRIIa1 extracellular domain, C-terminal His-tag (cynomolgus monkey)
# T1 construct: also called cyno FcγRIIa1; cynoFcgRIIa1
# T1 chain: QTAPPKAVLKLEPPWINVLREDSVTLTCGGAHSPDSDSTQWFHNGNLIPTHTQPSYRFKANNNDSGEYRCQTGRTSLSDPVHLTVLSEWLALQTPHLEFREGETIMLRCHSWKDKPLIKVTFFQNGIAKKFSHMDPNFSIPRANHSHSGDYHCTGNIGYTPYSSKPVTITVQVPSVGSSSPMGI
# T2: human FcγRIIaR extracellular domain, C-terminal His-tag (human, UniProt P12318 34-217)
# T2 construct: also called human FcγRIIa (type R); FcgRIIaR; not shown: His-tag added to the C-terminus
# T2 chain: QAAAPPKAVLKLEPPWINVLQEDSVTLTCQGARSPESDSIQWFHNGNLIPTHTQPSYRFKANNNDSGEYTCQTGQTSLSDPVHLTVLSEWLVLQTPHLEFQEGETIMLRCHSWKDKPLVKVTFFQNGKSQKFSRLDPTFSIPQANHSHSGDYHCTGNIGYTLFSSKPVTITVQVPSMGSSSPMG
# T3: cynomolgus monkey FcγRIIa1 extracellular domain, C-terminal His-tag (cynomolgus monkey)
# T3 construct: also called cyno FcγRIIa1; FcgRIIa1; not shown: His-tag added to the C-terminus
# T3 chain: T1 chain
# T4: cynomolgus monkey FcγRIIa2 extracellular domain, C-terminal His-tag (cynomolgus monkey)
# T4 construct: also called cyno FcγRIIa2; FcgRIIa2; not shown: His-tag added to the C-terminus
# T4 chain: T1 chain with P95T, T121A, I127K, A128S, K130N, D135N, R142Q
# T5: cynomolgus monkey FcγRIIa3 extracellular domain, C-terminal His-tag (cynomolgus monkey)
# T5 construct: also called cyno FcγRIIa3; FcgRIIa3; not shown: His-tag added to the C-terminus
# T5 chain: T1 chain with P95T, T121A, A128S, H133P, D135N
# T6: human FcγRIIb extracellular domain, C-terminal His-tag (human, UniProt P31994 43-217)
# T6 construct: also called FcgRIIb; not shown: His-tag added to the C-terminus
# T6 sequence: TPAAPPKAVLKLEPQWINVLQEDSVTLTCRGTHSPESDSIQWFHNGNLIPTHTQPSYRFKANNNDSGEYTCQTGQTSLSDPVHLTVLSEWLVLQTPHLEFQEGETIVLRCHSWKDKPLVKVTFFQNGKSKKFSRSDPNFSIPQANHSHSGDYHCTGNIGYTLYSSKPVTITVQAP
# T7: human FcγRIIaH extracellular domain, C-terminal His-tag (human, UniProt P12318 34-217)
# T7 construct: also called human FcγRIIa (type H); FcgRIIaH; not shown: His-tag added to the C-terminus
# T7 sequence: T2 chain with R134H
# B1: MS_M103205H795-SG1/M103202L889-SK1 (antibody, human IgG1, kappa)
# heavy: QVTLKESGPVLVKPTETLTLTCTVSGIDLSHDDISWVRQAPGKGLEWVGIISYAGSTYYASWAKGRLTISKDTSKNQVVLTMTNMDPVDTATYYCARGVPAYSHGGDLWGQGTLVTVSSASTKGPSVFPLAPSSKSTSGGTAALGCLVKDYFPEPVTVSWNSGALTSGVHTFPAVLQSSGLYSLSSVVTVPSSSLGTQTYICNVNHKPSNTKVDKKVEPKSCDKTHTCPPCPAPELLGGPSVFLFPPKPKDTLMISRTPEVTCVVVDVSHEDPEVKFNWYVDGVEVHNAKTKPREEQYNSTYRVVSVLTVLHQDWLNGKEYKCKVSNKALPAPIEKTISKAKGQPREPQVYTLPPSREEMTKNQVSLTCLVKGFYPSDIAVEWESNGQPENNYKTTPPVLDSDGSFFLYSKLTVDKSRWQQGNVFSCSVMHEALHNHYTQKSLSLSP
# light: DIVMTQSPATLSLSPGERATLSCTSSQSVYHANWLSWFQQKPGQPPKLLIYWASTLAYGVPSRFSGSGSGTDFTLTISSLQPEDAATYYCAGGYGGGRYAFGQGTKVEIKRTVAAPSVFIFPPSDEQLKSGTASVVCLLNNFYPREAKVQWKVDNALQSGNSQESVTEQDSKDSTYSLSSTLTLSKADYEKHKVYACEVTHQGLSSPVTKSFNRGEC
# notes: Parent of the Fc variants; also called MS1032LO06-SG1
# B2: M103205H795-MY050/M103202L889-SK1 (antibody, human IgG1, kappa)
# heavy: QVTLKESGPVLVKPTETLTLTCTVSGIDLSHDDISWVRQAPGKGLEWVGIISYAGSTYYASWAKGRLTISKDTSKNQVVLTMTNMDPVDTATYYCARGVPAYSHGGDLWGQGTLVTVSSASTKGPSVFPLAPSSKSTSGGTAALGCLVKDYFPEPVTVSWNSGALTSGVHTFPAVLQSSGLYSLSSVVTVPSSSLGTQTYICNVNHKPSNTKVDKKVEPKSCDKTHTCPPCPAPELLNGPSVFLFPPKPKDTLMISRTPEVTCVVVDVAEEDPEVKFNWYVDGVEVHNAKTKPREEQYNSTYRVVSVLTVLHQDWLNGKEYKCKVSNKALPAPIEKTISKAKGQPREPQVYTLPPSREEMTKNQVSLTCLVKGFYPSDIAVEWESNGQPENNYKTTPPVLDSDGSFFLYSKLTVDKSRWQQGNVFSCSVMHEALHNHYTQKSLSLSP
# light: B1 light
# notes: Substitutions introduced into M103205H795-SG1; expressed with M103202L889-SK1 as light chain
# B3: M103205H795-MY001/M103202L889-SK1 (antibody, human IgG1, kappa)
# heavy: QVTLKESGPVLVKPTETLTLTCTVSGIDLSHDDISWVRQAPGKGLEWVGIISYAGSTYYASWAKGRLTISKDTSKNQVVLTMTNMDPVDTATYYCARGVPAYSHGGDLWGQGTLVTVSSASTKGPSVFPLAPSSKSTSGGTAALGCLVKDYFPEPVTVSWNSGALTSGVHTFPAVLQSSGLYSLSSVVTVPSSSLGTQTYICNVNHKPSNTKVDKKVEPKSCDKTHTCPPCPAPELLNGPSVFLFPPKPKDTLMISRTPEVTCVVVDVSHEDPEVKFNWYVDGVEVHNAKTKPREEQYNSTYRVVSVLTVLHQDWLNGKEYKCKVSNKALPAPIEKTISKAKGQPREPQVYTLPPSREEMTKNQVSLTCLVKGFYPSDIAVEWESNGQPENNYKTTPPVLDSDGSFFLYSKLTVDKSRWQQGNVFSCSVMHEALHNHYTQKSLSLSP
# light: B1 light
# notes: as for B2
# B4: M103205H795-MY197/M103202L889-SK1 (antibody, human IgG1, kappa)
# heavy: B2 heavy with A269S, E270D, A332K, P398M
# light: B1 light
# notes: as for B2
# B5: M103205H795-MY141/M103202L889-SK1 (antibody, human IgG1, kappa)
# heavy: B2 heavy with E270H, P398M
# light: B1 light
# notes: as for B2
# B6: M103205H795-MY047/M103202L889-SK1 (antibody, human IgG1, kappa)
# heavy: not shown
# light: B1 light
# notes: as for B2
# B7: M103205H795-MY051/M103202L889-SK1 (antibody, human IgG1, kappa)
# heavy: B2 heavy with A269S, P273G
# light: B1 light
# notes: as for B2
# B8: M103205H795-MY115/M103202L889-SK1 (antibody, human IgG1, kappa)
# heavy: B2 heavy with P398M
# light: B1 light
# notes: as for B2
# B9: M103205H795-MY117/M103202L889-SK1 (antibody, human IgG1, kappa)
# heavy: B2 heavy with L236W, P398M
# light: B1 light
# notes: as for B2
# B10: M103205H795-MY101/M103202L889-SK1 (antibody, human IgG1, kappa)
# heavy: B2 heavy with A269S, A332K, P398M
# light: B1 light
# notes: also called MS1032LO06-MY101
# B11: M103205H795-MY147/M103202L889-SK1 (antibody, human IgG1, kappa)
# heavy: B2 heavy with L237W, A269S, P398M
# light: B1 light
# notes: as for B2
# B12: M103205H795-MY049/M103202L889-SK1 (antibody, human IgG1, kappa)
# heavy: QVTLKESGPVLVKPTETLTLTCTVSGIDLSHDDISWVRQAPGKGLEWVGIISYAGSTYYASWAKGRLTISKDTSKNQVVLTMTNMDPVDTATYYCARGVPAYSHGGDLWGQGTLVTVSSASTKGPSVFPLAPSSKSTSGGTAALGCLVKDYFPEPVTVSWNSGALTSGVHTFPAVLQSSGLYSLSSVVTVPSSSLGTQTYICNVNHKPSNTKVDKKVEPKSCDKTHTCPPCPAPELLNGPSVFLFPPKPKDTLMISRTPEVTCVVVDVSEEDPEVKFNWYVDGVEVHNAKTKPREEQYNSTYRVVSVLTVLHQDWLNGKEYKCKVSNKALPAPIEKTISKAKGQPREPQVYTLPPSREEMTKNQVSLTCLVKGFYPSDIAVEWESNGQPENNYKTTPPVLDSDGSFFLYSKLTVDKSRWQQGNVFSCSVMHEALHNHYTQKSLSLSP
# light: B1 light
# notes: as for B2
# B13: M103205H795-MY052/M103202L889-SK1 (antibody, human IgG1, kappa)
# heavy: B2 heavy with A269S, P398M
# light: B1 light
# notes: as for B2
# B14: M103205H795-MY048/M103202L889-SK1 (antibody, human IgG1, kappa)
# heavy: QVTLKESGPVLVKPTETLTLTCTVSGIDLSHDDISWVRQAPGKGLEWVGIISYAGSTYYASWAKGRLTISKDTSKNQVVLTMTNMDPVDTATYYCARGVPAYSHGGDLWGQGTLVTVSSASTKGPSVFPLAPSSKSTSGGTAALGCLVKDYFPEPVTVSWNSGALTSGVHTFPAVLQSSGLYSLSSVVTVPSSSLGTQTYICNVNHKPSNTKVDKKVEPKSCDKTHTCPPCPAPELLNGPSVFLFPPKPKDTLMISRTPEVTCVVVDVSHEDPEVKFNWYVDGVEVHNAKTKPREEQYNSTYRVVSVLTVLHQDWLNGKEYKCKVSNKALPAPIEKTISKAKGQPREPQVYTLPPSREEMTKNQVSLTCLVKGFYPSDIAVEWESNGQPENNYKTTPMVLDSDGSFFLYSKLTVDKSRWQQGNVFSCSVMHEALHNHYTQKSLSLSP
# light: B1 light
# notes: as for B2
# B15: M103205H795-MY105/M103202L889-SK1 (antibody, human IgG1, kappa)
# heavy: B2 heavy with S241V, A269S, P398M
# light: B1 light
# notes: as for B2
# B16: MS1032LO06-SG1 (M103205H795-SG1/M103202L889-SK1) (antibody, human IgG1, kappa)
# heavy: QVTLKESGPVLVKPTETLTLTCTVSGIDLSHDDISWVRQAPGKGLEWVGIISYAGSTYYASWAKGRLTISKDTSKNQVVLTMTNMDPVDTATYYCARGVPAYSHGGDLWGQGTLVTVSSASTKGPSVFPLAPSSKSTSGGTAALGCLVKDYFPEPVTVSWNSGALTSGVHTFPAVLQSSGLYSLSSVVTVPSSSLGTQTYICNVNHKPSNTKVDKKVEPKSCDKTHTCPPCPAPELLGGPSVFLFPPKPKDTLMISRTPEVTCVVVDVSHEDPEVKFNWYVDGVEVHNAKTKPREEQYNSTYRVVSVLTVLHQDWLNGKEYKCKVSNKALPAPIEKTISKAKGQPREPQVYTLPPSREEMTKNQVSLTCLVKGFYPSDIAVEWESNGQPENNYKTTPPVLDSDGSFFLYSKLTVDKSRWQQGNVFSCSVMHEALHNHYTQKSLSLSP
# light: B1 light
# notes: Anti-latent myostatin antibody
# B17: MS1032LO06-MY351 (M103205H795-MY351/M103202L889-SK1) (antibody, human IgG1, kappa)
# heavy: B2 heavy with A269S, E270D, Q313R, A332K, D415K
# light: B1 light
# notes: CH MY351 = SG1 with G236N/H268D/Q311R/A330K/D413K (EU numbering); also called MS103205H795-MY351
# B18: MS1032LO06-MY201 (M103205H795-MY201/M103202L889-SK1) (antibody, human IgG1, kappa)
# heavy: B2 heavy with A269S, E270D, A332K
# light: B1 light
# notes: CH MY201 = SG1 with G236N/H268D/A330K (EU numbering); also called MS103205H795-MY201
# B19: MS1032LO06-MY352 (M103205H795-MY352/M103202L889-SK1) (antibody, human IgG1, kappa, name in EU numbering)
# heavy: B2 heavy with A269S, E270D, Q313R, A332K, D415R
# light: B1 light
# notes: Printed substitutions: G236N/H268D/Q311R/A330K/D413R (EU numbering); also called MS103205H795-MY352
# Target: T1, cynomolgus monkey FcγRIIa1 …
# Test: SPR (Biacore), antibody captured, FcgR analyte
row,Kd [µM],Binder
1,3.2,B1
2,4.3,B2
3,29,B3
4,0.58,B4
5,22,B5
6,4.8,B6
7,4.6,B7
8,2.3,B8
9,2.6,B9
10,1.1,B10
11,2.2,B11
12,2.7,B12
13,1.4,B13
14,14,B14
15,12,B15

# Target: T8, human FcγRIIIaV extracellular domain, C-terminal His-tag (human, UniProt P08637 17-208)
# T8 construct: also called FcgRIIIaV; not shown: His-tag added to the C-terminus
# T8 sequence (P08637 17-208 F176V): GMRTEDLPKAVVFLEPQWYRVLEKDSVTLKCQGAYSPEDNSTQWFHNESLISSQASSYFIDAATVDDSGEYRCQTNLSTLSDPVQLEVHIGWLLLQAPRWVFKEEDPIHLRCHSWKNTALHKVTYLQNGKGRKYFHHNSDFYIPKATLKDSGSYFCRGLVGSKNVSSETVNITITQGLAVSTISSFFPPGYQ
# Test: SPR; KD of SG1 divided by KD of variant;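 also: relative to parent M103205H795-SG1 carrying the SG1 human heavy chain constant region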
# Experimental: (§1) The kinetic analysis of interactions between these antibodies and FcγR was carried out using BIACORE® T200 or BIACORE® 4000 (GE Healthcare). HBS-EP+ (GE Healthcare) was used as the running buffer, and the measurement temperature was set to 25° C. A chip produced by immobilizing Protein A. Protein A/G or mouse anti-human IgG kappa light chain (BD Biosciences) onto a Series S Sensor Chip CM4 or CM5 (GE Healthcare) by the amine-coupling method was used. […] After the measurement, the antibody captured on the chip was washed off by allowing reaction with 10 mM glycine-HCl, pH1.5 and 25 mM NaOH so that the chip was regenerated and used repeatedly. The sensorgrams obtained as measurement results were analyzed by the 1:1 Langmuir binding model using the BIACORE® Evaluation Software to calculate the binding rate constant ka (L/mol/s) and dissociation rate constant kd (l/s), and the dissociation constant KD (mol/L) was calculated from these values. […] Regarding such interactions, KD values were calculated using the following 1:1 binding model described in BIACORE® T100 Software Handbook BR1006-48 Edition AE.
row,KD fold (SG1 = 1) [fold],Binder
1,1,B16
2,0.08,B17
3,0.02,B18
4,0.06,B19

# Target: T2, human FcγRIIaR extracellular domain, …
# Test: SPR; KD of SG1 divided by KD of variant;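 also: relative to parent M103205H795-SG1 carrying the SG1 human heavy chain constant region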
# Experimental: as §1
row,KD fold (SG1 = 1) [fold],Binder
1,1,B16
2,0.6,B17
3,0.8,B18
4,0.6,B19

# Target: T3, cynomolgus monkey FcγRIIa1 …
# Test: SPR; KD of SG1 divided by KD of variant;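 also: relative to parent M103205H795-SG1 carrying the SG1 human heavy chain constant region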
# Experimental: as §1
row,KD fold (SG1 = 1) [fold],Binder
1,1,B16
2,3,B17
3,3.2,B18
4,2.7,B19

# Target: T9, cynomolgus monkey FcγRIIIaS extracellular domain, C-terminal His-tag (cynomolgus monkey, UniProt A3RFZ7 21-206 (rhesus entry))
# T9 construct: also called cyno FcγRIIIaS; FcgRIIIaS; not shown: His-tag added to the C-terminus
# T9 sequence (A3RFZ7 21-206): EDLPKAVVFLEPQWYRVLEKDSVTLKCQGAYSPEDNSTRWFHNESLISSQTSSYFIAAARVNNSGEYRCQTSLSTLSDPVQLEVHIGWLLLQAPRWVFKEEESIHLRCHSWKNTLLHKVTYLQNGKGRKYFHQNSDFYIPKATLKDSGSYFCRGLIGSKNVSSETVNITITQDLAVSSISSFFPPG
# Test: SPR; KD of SG1 divided by KD of variant;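 also: relative to parent M103205H795-SG1 carrying the SG1 human heavy chain constant region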
# Experimental: as §1
row,KD fold (SG1 = 1) [fold],Binder
1,1,B16
2,0.07,B17
3,0.08,B18
4,0.07,B19

# Target: T4, cynomolgus monkey FcγRIIa2 …
# Test: SPR; KD of SG1 divided by KD of variant
# Experimental: as §1
row,KD fold (SG1 = 1) [fold],Binder
1,1,B16
2,3.6,B17
3,4,B18
4,3.5,B19

# Target: T5, cynomolgus monkey FcγRIIa3 …
# Test: SPR; KD of SG1 divided by KD of variant
# Experimental: as §1
row,KD fold (SG1 = 1) [fold],Binder
1,1,B16
2,4,B17
3,4.9,B18
4,3.9,B19

# Target: T6, human FcγRIIb extracellular domain, …
# Test: SPR; KD of SG1 divided by KD of variant
# Experimental: as §1
row,KD fold (SG1 = 1) [fold],Binder
1,1,B16
2,4.9,B17
3,5.6,B18
4,4.6,B19

# Target: T7, human FcγRIIaH extracellular domain, …
# Test: SPR; KD of SG1 divided by KD of variant
# Experimental: as §1
row,KD fold (SG1 = 1) [fold],Binder
1,1,B16
2,0.7,B17
3,0.9,B18
4,0.7,B19
